According to paper PMC12852852:

Molecular target: hClpX E285A (human) (UniProt O76031)

hClpX E285A (from UniProt O76031 57-633) (enzyme)
stoichiometry N: 6
